Assay results from US20210122823A1 (EXCELMAB, published 2021).
Where a chain is given by its changes, count along the chain named.

B1: HER2-OB1×GXP2 bispecific antibody (bispecific antibody, human IgG1, kappa, L234A L235A)
heavy 1: not shown
heavy 2: EVQLVESGGGLVQPGGSLKLSCAASGFTFNTYAMNWVRQAPGKGLEWVARIRSKYNNYATYYADSVKDRFTISRDDSKNTAYLQMNNLKTEDTAMYYCVRHGNFGNSYVSWFAYWGQGTLVTVSSASTKGPSVFPLAPSSKSTSGGTAALGCLVKDYFPEPVTVSWNSGALTSGVHTFPAVLQSSGLYSLSSVVTVPSSSLGTQTYICNVNHKPSNTKVDKKVEPKSCDKTHTCPPCPAPEAAGGPSVFLFPPKPKDTLMISRTPEVTCVVVDVSHEDPEVKFNWYVDGVEVHNAKTKPREEQYNSTYRVVSVLTVLHQDWLNGKEYKCKVSNKALPAPIEKTISKAKGQPREPQVYTLPPSRDELTKNQVSLTCLVKGFYPSDIAVEWESNGQPENNYKTTKKKLDSDGSFFLYSKLTVDKSRWQQGNVFSCSVMHEALHNHYTQKSLSLSPGK
light: DIQMTQEPSLTTSPGGTVTLTCRSSTGAVTTSNYANWVQEKPGQAPRGLIGGTNKRAPGTPARFSGSLIGGKAALTITGVQPEDEAIYFCALWYSNLWVFGGGTKLEIKRTVAAPSVFIFPPSDEQLKSGTASVVCLLNNFYPREAKVQWKVDNALQSGNSQESVTEQDSKDSTYSLSSTLTLSKADYEKHKVYACEVTHQGLSSPVTKSFNRGEC
notes: also called HER2×GXP2; Her2×GXP2
B2: HER2-OB1×GXP bispecific antibody (bispecific antibody)
chain 1: not shown
chain 2: B1 heavy 2 with Q3K, V5L, G15K, K78Q, N79S, T80I, A81L
chain 3: QAVVTQESALTTSPGETVTLTCRSSTGAVTTSNYANWVQEKPDHLFTGLIGGTNKRAPGVPARFSGSLIGDKAALTITGAQTEDEAIYFCALWYSNLWVFGGGTKLVTMEIKRTVAAPSVFIFPPSDEQLKSGTASVVCLLNNFYPREAKVQWKVDNALQSGNSQESVTEQDSKDSTYSLSSTLTLSKADYEKHKVYTCEVTHQGLSSPVTKSFNRGEC

Columns and labels:
[1] = target: T1, human CD3 antigen (human, UniProt P07766 23-126); assay: ELISA, CD3 antigen coated on plate, anti-human IgG-peroxidase detection
T1 construct: also called antigen CD3

[2] = target: HER2 on tumor cell lines (SKBR-3, NCI-N87, MCF-7; 293F as HER2-negative control) (human, UniProt P04626 23-1255); assay: cell-based or functional assay

T1 sequence (P07766 23-126): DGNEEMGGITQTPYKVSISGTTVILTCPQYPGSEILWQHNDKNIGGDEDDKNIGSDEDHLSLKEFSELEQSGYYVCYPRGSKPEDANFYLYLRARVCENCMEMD

Binder	EC50 [1]	EC50 of PBMC-mediated killing of NCI-N87 cells (LDH release) [2]	EC50 of PBMC-mediated killing of SKBR-3 cells (LDH release), fold lower than Herceptin [2]
B1	1.4 µg/mL	0.000395 µg/mL	> 100 times lower than Herceptin
B2	3.15 µg/mL		
